In publication PMC7566566 one finds binding result and Kd data, which are given here for 15 molecules.

Holding throughout (test): competition
The target of series [1] is T1, Hera (Thermus thermophilus, UniProt O07897 1-510).
T1 sequence: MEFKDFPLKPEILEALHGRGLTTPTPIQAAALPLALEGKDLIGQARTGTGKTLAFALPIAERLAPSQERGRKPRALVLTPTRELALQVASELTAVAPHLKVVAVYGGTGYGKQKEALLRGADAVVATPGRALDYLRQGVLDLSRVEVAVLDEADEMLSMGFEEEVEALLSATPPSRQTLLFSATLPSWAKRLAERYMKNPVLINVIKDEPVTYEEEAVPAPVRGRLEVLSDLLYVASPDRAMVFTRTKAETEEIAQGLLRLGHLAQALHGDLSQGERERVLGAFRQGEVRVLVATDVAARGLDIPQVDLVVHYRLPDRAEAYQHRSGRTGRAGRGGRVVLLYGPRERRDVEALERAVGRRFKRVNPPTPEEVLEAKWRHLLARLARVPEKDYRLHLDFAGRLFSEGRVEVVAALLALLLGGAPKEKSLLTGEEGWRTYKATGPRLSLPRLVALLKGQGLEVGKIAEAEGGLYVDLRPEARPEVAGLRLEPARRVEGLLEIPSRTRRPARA

Series [2] concerns the target T1, Hera. The source holds these as a separate data set.
Series [3] deals with T1, Hera. The source holds these as a separate data set.

Like-named read-outs stand apart in the source and are kept apart here.

AAAAAAAAAAAAAAAAAAAAAAAAAAAAAAAAAAAAAAAAAAAAAAAAAA (ssRNA) [50A]: the binding result in series [1] is on record as “no binding”. Still for that read-out and setting: with AGGTCCCAA (ssDNA) [9mer DNA] the entry was “no binding”.

B1: tRNAPro (TT_RS09670) (structured_RNA)
RNA: CGGGGAGUAGCGCAGCCUGGUAGCGCACACGCUUGGGGUGCGUGGGGUCGUCGGUUCAAAUCCGGCCUCCCCGACCA
The Kd is the free concentration of one partner at which half of the binding sites on the other are occupied at equilibrium, for simple one-to-one binding. Read a high Kd as weaker binding. In the case of B1, in series [1], the Kd came to 400 nM. In other words, the sub-micromolar range.

B2: tRNAPro (TT_RS02830) (structured_RNA)
RNA: CGGGGAGUAGCGCAGCCCGGUAGCGCACCUCGUUCGGGACGAGGGGGUCGCUGGUUCAAAUCCAGUCUCCCCGACCA
B2 registered a dissociation constant Kd in series [1] of 600 nM.

B3: tRNATyr (TT_RS08805) (structured_RNA)
RNA: GGGCAGGUGCCCGAGCGGCCAAAGGGGACGGUCUGUAAAACCGUUGGCGUAUGCCUUCGCUGGUUCGAAUCCAGCCCUGCCCACCA
In series [1], B3 displayed a Kd of 400 nM. Compared with the last molecule, the Kd is about 1.5-fold lower.

B4: tRNASer (TT_RS06780) (structured_RNA)
RNA: GGAGAGGUGGCCGAGUGGUCGAAGGCGGCACCCUGCUAAGGUGUUGCACCGGGAAAACCGGUGCCGCGGGUUCGAAUCCCGCCCUCUCCGCCA
In series [1], B4 showed a Kd of 60 nM.

B5: tRNAGly (TT_RS08190) (structured_RNA)
RNA: GCGGGAGUAGCUCAGUCGGUAGAGCACGACCUUGCCAAGGUCGGGGUCGCGGGUUCAAGUCCCGUCUCCCGCUCCA
Consider B5, for which binding in series [1] was put at a Kd of 400 nM. With UAGGGGCGUGUGGGCCCACCCGGCGUGGCGCUGGCUCCACC (ssRNA) [RNA 2], the binding result in series [1] is on record as “binds”.

B6: tRNAPro (TT_RS01350) (structured_RNA)
RNA: CGGGGCGUAGCGCAGGCCGGUAGCGCACCUGCUUUGGGAGCAGGGGGUCGCCCGUUCAAAUCGGGCCGCCCCGACCA
B6 gave a Kd in series [1] of 1400 nM. With UUUGGGGCUGCGGGGCUGGACCCCACGGGCGCCGCCACCC (ssRNA) [RNA 13], the binding result in series [1] is reported as “binds”. For CCUGCACGUUCCCACCGCCUGGGU (ssRNA) [RNA 1654], the binding result in series [2] is on record as “no binding”.

CUGGCUUGCCCGGGAGAUCCUGGGCUACCCCGA (ssRNA) [RNA 9]: the binding result in series [1] is “binds”. As for GCCAAGCCGGGCCUGGAC (ssRNA) [RNA 1638], the binding result in series [3] was “no binding”. In series [1], UUUUUUUUUUUUUUUUUUUUUUUUUUUUUUUUUUUUUUUUUUUUUUUUUU (ssRNA) [50U] had a Kd of 240 ± 50 nM. Regarding CUCGUGGCCCUGGCGAGGAGGCUCGUGGAGGAGUAC (ssRNA) [RNA 1640], the binding result in series [3] is recorded as “no binding”.
